Values joined by “and” are separate entries in the source; they are usually repeats but may differ in a detail not shown here. Identical values can stand only once.
T1: hVISTA-Fc labelled with d2 (human, UniProt Q9H7M9 33-194, labelled with d2 (HTRF acceptor); site not stated)
T1 construct: It may be the same protein as rhVISTA-Fc of the Biacore assay, with a d2 label; also called VISTA-Fc-d2; not shown: Fc
T1 sequence: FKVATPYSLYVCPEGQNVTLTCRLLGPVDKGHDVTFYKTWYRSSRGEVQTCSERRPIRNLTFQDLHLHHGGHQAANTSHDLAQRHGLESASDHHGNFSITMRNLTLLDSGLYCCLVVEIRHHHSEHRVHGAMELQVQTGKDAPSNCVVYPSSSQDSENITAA

T2: recombinant human (rh) VISTA-His protein (human, UniProt Q9H7M9 33-194)
T2 construct: A soluble His-tagged protein is probably the extracellular domain; also called rhVISTA-TagHis; rhVISTA-his (monomer); not shown: His tag
T2 sequence: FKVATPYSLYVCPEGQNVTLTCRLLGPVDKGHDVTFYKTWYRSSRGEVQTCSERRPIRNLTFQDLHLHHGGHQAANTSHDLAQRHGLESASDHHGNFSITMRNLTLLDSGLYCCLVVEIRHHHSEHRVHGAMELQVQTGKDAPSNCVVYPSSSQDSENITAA


How the values were obtained:
[1] = target: T1, hVISTA-Fc labelled with d2; experiment: HTRF, VISTA-Fc-d2 and PSGL1-His/anti-His-Tb, pH 6; antibody at 0.63 µg/mL; mean of 3 experiments
[2] = target: T1, hVISTA-Fc labelled with d2; experiment: HTRF, VISTA-Fc-d2 and PSGL1-His/anti-His-Tb, pH 6; antibody at 5 µg/mL; mean of 3 experiments
[3] = target: T1, hVISTA-Fc labelled with d2; experiment: HTRF competition, VISTA-Fc-d2 and PSGL1-His/anti-His-Tb, pH 6
[4] = target: T1, hVISTA-Fc labelled with d2; experiment: HTRF, VISTA-Fc-d2 and PSGL1-His/anti-His-Tb, pH 6; antibody at 1.25 µg/mL; mean of 3 experiments
[5] = target: T1, hVISTA-Fc labelled with d2; experiment: HTRF, VISTA-Fc-d2 and PSGL1-His/anti-His-Tb, pH 6; antibody at 0.31 µg/mL; mean of 3 experiments
[6] = target: T1, hVISTA-Fc labelled with d2; experiment: HTRF, VISTA-Fc-d2 and PSGL1-His/anti-His-Tb, pH 6; antibody at 2.5 µg/mL; mean of 3 experiments
[7] = target: T1, hVISTA-Fc labelled with d2; experiment: HTRF, VISTA-Fc-d2 and PSGL1-His/anti-His-Tb, pH 6; antibody at 10 µg/mL; mean of 3 experiments
[8] = target: T1, hVISTA-Fc labelled with d2; experiment: HTRF, VISTA-Fc-d2 and PSGL1-His/anti-His-Tb, pH 6; antibody at 0.16 µg/mL; mean of 3 experiments
[9] = target: T2, recombinant human (rh) VISTA-His protein; experiment: indirect ELISA, rhVISTA-His captured by coated anti-His antibody; experiment n1
Protocol: (§1) After incubation, the coating solution was removed and plates were blocked by adding 250 μl blocking buffer (0.5% gelatin in 1×PBS) for at least 1 hour at 37° C.

[10] = target: T2, recombinant human (rh) VISTA-His protein; experiment: indirect ELISA, rhVISTA-His captured by coated anti-His antibody; mean EC50 of n1-n3
Protocol: as §1

[11] = target: T2, recombinant human (rh) VISTA-His protein; experiment: direct ELISA, rhVISTA-His coated on plate; experiment n1
Protocol: as §1

[12] = target: T2, recombinant human (rh) VISTA-His protein; experiment: indirect ELISA, rhVISTA-His captured by coated anti-His antibody; Mean EC50 'Prism' n = 3
Protocol: as §1

[13] = target: T2, recombinant human (rh) VISTA-His protein; experiment: direct ELISA, rhVISTA-His coated on plate; mean EC50 of n1-n3
Protocol: as §1

[14] = target: T2, recombinant human (rh) VISTA-His protein; experiment: direct ELISA, rhVISTA-His coated on plate; experiment n3
Protocol: as §1

[15] = target: T2, recombinant human (rh) VISTA-His protein; experiment: direct ELISA, rhVISTA-His coated on plate; experiment n2
Protocol: as §1

[16] = target: T2, recombinant human (rh) VISTA-His protein; experiment: indirect ELISA, rhVISTA-His captured by coated anti-His antibody; experiment n3
Protocol: as §1

[17] = target: T2, recombinant human (rh) VISTA-His protein; experiment: indirect ELISA, rhVISTA-His captured by coated anti-His antibody; experiment n2
Protocol: as §1

[18] = target: T2, recombinant human (rh) VISTA-His protein; experiment: direct ELISA, rhVISTA-His coated on plate; Mean EC50 'Prism' n = 3
Protocol: as §1

Molecule | percentage of the specific HTRF signal [1] [%] | percentage of the specific HTRF signal [2] [%] | IC50 [3] [nM] | percentage of the specific HTRF signal [4] [%] | percentage of the specific HTRF signal [5] [%] | percentage of the specific HTRF signal [6] [%] | percentage of the specific HTRF signal [7] [%] | percentage of the specific HTRF signal [8] [%] | EC50 [9] | EC50 [10] | EC50 [11] | EC50 [12] [nM] | EC50 [13] | EC50 [14] | EC50 [15] | EC50 [16] | EC50 [17] | EC50 [18]
anti-VISTA R&D Systems #71261 (antibody) | 81 | 50 | 333 | 68 | 88 | 63 | 34 | 89 | – | – | – | – | – | – | – | – | – | –
anti-VISTA antibody Ab1 (N55D substitution in the CDR-H2) (antibody, human IgG1, kappa, V domains shown, N-terminal glutamine mainly in the pyroglutamic acid form; N-glycan at Asn298; most of the C-terminal lysines clipped, also called anti-VISTA Ab1) VH: QVQLVQSGAEVKKPGASVKISCKASGFSFTGYTMNWVRQAPGQGLEWIGLISPYDGGTSYAQKFQGRATLTVDTSTSTAYMELSSLRSEDTAVYYCARRAYGYAMDYWGQGTLVTVSS VL: EIVLTQSPATLSLSPGERVTMSCSASSSVSYMYWYQQKPGQAPRLLIYDTSNLASGVPARFSGSGSGTDYTLTISSMEPEDFAVYYCQQWSSYPFTFGQGTKLEIKR | – | – | 2.3 | – | – | – | – | – | 0.0501 nM | 0.0471 nM | 1.04 nM | 0.0471 | 1.02 nM | 0.928 nM | 1.08 nM | 0.0465 nM | 0.0447 nM | 1.02 nM
monoclonal antibody Ab3 (unmutated antibody) (antibody, human IgG1, kappa, V domains shown, partly deamidated at N55 (mixture of N55/N55, N55/D55 and D55/D55 charge variants), The batch is kept in the printed label of each row; also called Ab 3 batch 1; Ab 3 batch 2) VH: QVQLVQSGAEVKKPGASVKISCKASGFSFTGYTMNWVRQAPGQGLEWIGLISPYNGGTSYAQKFQGRATLTVDTSTSTAYMELSSLRSEDTAVYYCARRAYGYAMDYWGQGTLVTVSS VL: EIVLTQSPATLSLSPGERVTMSCSASSSVSYMYWYQQKPGQAPRLLIYDTSNLASGVPARFSGSGSGTDYTLTISSMEPEDFAVYYCQQWSSYPFTFGQGTKLEIKR | – | – | – | – | – | – | – | – | 0.0458 nM and 0.0382 nM | 0.0396 nM and 0.0393 nM | 0.641 nM and 1.1 nM | 0.0393 | 0.671 nM and 0.961 nM | 0.645 nM and 0.901 nM | 0.728 nM and 0.877 nM | 0.0386 nM and 0.038 nM | 0.0342 nM and 0.0418 nM | 0.959 nM and 0.671 nM

— patent US20240209094A1 (PIERRE FABRE MEDICAMENT, published 2024)
